Data from patent US20220389113A1, “BINDING PROTEINS TO CUB DOMAIN-CONTAINING PROTEIN (CDCP1)” (COMMONWEALTH SCIENTIFIC AND INDUSTRIAL RESEARCH ORGANISATION, priority 2019, published 2022).

Columns and labels:
CDCP1^GFP in HEY cells = assay: Live-cell spinning-disk confocal microscopy of HEY-CDCP1^GFP cells; type: cell-based; conditions: dasatinib 200 nM pre-treatment
Procedure: Live-cell spinning-disk confocal imaging was performed as described (Stehbens S J, et al., (2014) 16(6):561-73.) on an environmentally controlled Nikon TI inverted microscope (Nikon, New York) equipped with a Borealis-modified Yokogawa CSU-X1 confocal head (Spectral Applied Research, Ontario Canada) and a Clara cooled interline charge-coupled device (CCD) camera (Andor Technology, Belfast, United Kingdom). Dynamics of fluorescent proteins were imaged at 37° C. using a 60×1.49 NA objective (Nikon) with imaging of CDCP1^GFP internalization induced by 10D7^pH performed at ˜1 frame/sec. Image analysis and quantification was performed using Imaris 7.1 software (Bitplane, Zurich, Switzerland) (Morton J P, et al., (2010) 139(1):292-303.). Briefly, the Spots creation wizard automatically subtracted background and detected CDCP1^GFP puncta which were filtered for analysis based on threshold values above 20 for ‘quality’ defined as the intensity at the centre of the puncta, Gaussian filtered by […] (Doyon J B, et al., (2011)13(3):331-7.). Puncta were tracked over sequential frames using the Autoregressive motion particle-tracking algorithm. […] Quantification of track length during the period 0-5 min was determined from the 100 tracks with the highest velocity in each experimental group. […]

[1] = biological target: human CUB domain-containing protein 1 (CDCP1), expressed by cells (human) (UniProt Q9H5V8); assay: flow cytometry of TKCC02 cells, 5 µg/ml antibody, APC-conjugated anti-mouse secondary; number in the IgG column (paragraph 330 calls the numbers of the 10D7 column MFI)
[2] = biological target: human CUB domain-containing protein 1 (CDCP1), expressed by cells (human) (UniProt Q9H5V8); assay: flow cytometry of TKCC10 cells, 5 µg/ml antibody, APC-conjugated anti-mouse secondary; number in the IgG column (paragraph 330 calls the numbers of the 10D7 column MFI)
[3] = biological target: human CUB domain-containing protein 1 (CDCP1), expressed by cells (human) (UniProt Q9H5V8); assay: flow cytometry of PANC-1 cells, 5 µg/ml antibody, APC-conjugated anti-mouse secondary; number in the IgG column (paragraph 330 calls the numbers of the 10D7 column MFI)
[4] = biological target: human CUB domain-containing protein 1 (CDCP1), expressed by cells (human) (UniProt Q9H5V8); assay: flow cytometry of TKCC05 cells, 5 µg/ml antibody, APC-conjugated anti-mouse secondary; number in the IgG column (paragraph 330 calls the numbers of the 10D7 column MFI)
[5] = biological target: T1, human CUB domain-containing protein 1 (CDCP1), expressed by cells (human, UniProt Q9H5V8 30-836); assay: summary of co-IP, SEC and reducing/non-reducing Western blots
T1 construct: also called CDCP1-FL; CD318
T1 sequence: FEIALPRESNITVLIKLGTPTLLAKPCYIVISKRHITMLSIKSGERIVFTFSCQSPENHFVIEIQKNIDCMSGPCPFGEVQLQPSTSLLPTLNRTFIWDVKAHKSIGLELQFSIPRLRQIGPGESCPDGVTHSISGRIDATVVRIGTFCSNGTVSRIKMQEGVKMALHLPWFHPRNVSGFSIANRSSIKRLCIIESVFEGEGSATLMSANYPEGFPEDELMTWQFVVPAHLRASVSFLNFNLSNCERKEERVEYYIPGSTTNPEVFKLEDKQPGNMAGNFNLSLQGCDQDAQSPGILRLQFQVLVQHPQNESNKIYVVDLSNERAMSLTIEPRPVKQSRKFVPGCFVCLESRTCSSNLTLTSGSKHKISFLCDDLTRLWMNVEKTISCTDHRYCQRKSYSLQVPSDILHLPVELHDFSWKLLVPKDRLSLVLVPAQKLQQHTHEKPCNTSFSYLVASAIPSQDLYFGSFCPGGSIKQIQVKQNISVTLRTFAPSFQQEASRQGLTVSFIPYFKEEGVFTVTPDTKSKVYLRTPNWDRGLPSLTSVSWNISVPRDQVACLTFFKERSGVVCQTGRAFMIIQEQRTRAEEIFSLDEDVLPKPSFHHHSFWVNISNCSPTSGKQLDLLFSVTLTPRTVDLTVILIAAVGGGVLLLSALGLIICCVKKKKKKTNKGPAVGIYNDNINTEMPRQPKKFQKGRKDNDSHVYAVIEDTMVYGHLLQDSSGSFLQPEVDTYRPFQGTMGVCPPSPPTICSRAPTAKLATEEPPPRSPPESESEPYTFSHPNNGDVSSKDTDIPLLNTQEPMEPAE

[6] = biological target: T2, recombinant CDCP1-ECD, spanning residue 30 to 665 (human, UniProt Q9H5V8 30-665); assay: SPR, Biacore T200, antibody captured via Protein G, CDCP1-ECD analyte; reference 41-2
T2 construct: Recombinant protein described in Chen Y et al. 2017; also called CDCP1 extracellular domain (ECD)
T2 sequence: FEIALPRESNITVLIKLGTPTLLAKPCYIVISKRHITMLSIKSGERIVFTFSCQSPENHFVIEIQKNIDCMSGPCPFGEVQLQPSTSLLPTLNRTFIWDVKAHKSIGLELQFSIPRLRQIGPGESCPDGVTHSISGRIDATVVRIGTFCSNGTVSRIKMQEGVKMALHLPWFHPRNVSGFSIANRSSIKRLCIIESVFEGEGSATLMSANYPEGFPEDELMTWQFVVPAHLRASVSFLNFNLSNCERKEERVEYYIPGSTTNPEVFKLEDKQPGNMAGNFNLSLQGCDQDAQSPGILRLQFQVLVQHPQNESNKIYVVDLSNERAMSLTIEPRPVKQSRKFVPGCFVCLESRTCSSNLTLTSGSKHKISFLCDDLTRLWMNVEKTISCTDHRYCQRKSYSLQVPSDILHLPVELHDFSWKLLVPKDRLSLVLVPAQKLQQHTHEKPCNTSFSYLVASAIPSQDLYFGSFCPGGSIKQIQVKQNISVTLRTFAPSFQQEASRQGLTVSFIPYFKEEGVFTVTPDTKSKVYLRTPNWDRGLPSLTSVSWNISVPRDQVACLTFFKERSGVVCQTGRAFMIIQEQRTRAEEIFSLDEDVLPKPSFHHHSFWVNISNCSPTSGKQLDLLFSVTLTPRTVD

[7] = biological target: T2, recombinant CDCP1-ECD, spanning residue …; assay: SPR (Biacore T200), antibody captured via Protein G on a CM5 chip, CDCP1-ECD 1.56 to 50 nM as analyte, 25 °C
[8] = biological target: T2, recombinant CDCP1-ECD, spanning residue …; assay: SPR, Biacore T200, antibody captured via Protein G on CM5 chip, CDCP1-ECD analyte 50 to 1.56 nM, 25 C
TKCC05 cells = assay: Confocal microscopy of TKCC05 cells treated with 10D7-Qdot; type: cell-based, human
Procedure: Labelling of antibody 10D7 with fluorescent Qdot 625 probes was performed using a kit supplied by the manufacturer. TKCC05 cells were grown on poly-Lysine treated […] chamber slides (DKSH, Hallam, Australia) until 70% confluent then incubated with 10D7-Qdot. After 5, 10 and 120 min cells were fixed with 4% paraformaldehyde for 15 min at room temperature (RT), washed with PBS, then incubated with DAPI to highlight cell nuclei and Alexa Fluor 488 phalloidin to highlight cell cytoplasms (30 min at RT). Imaging was performed on a Nikon/Spectral Spinning Disc Confocal microscope.
To assess the impact of antibody 10D7 on CDCP1 expressed by PDAC, the inventors performed confocal microscopy and western blot analysis of patient-derived PDAC cells treated with this antibody for defined periods of time. […] Western blot analysis confirmed that 10D7 induces rapid transient tyrosine phosphorylation of CDCP1-ATF in TKCC05 cells and CDCP1-FL in TKCC10 cells, while Src was also transiently tyrosine phosphorylated in these cells in response to 10D7 (FIG. 11B). […] The data are consistent with CDCP1-ATF remaining tethered to the plasma membrane likely via CDCP1-CTF and indicate that intact and cleaved CDCP1 can be functionally targeted with antibody 10D7 in PDAC cells. Thus, antibody 10D7 is effective at targeting uncleaved as well as cleaved CDCP1 that are present on the surface of cancer cells.

With Cc1nc(Nc2ncc(C(=O)Nc3c(C)cccc3Cl)s2)cc(N2CCN(CCO)CC2)n1 [dasatinib] the “reduction of CDCP1^GFP track length in response to 10D7” value (CDCP1^GFP in HEY cells) was “about 80%”.

With IgG (antibody) the MFI [1] was 216, the MFI [2] was 133 and the MFI [3] was 202. It also gave an MFI [4] of 234.

B1: CDCP1 amino-terminal fragment (CDCP1-ATF), 65 kDa (receptor)
chain: FEIALPRESNITVLIKLGTPTLLAKPCYIVISKRHITMLSIKSGERIVFTFSCQSPENHFVIEIQKNIDCMSGPCPFGEVQLQPSTSLLPTLNRTFIWDVKAHKSIGLELQFSIPRLRQIGPGESCPDGVTHSISGRIDATVVRIGTFCSNGTVSRIKMQEGVKMALHLPWFHPRNVSGFSIANRSSIKRLCIIESVFEGEGSATLMSANYPEGFPEDELMTWQFVVPAHLRASVSFLNFNLSNCERKEERVEYYIPGSTTNPEVFKLEDKQPGNMAGNFNLSLQGCDQDAQSPGILRLQFQVLVQHPQNESNKIYVVDLSNERAMSLTIEPRPVKQSR
notes: Product of proteolytic cleavage of CDCP1
B1: binds [5].

B2: anti-CDCP1 mouse monoclonal antibody 10D7 (antibody, V domains shown)
VH: EVQLQQFGAELVKPGASVKISCKASGYSFSDFNIEWLKQSHGKSLEWIGDINPNYDSTNYNQKFKGRATLTVDKSSSTAYMEVRSLTSEDTAVYYCARLGYGYAMDYWGQGTSVTVSS
VL: NIVMTQSPQSMSMSVGERVTLSCKASENVGAYVSWFQQKPDQSPKLLILAASNRYTGVPARFIGSGSATDFTLTISSVQAEDLADYHCGQSYTYPYTFGGGTKLEIKR
notes: also called mAb 10D7; mouse 10D7 antibody
For B2, the “fold stronger KD than 41-2” value [6] was 2.7 fold, the koff [7] was 0.000441 s⁻¹ and the kon [7] was 1e+06 M⁻¹ s⁻¹. The Kd [8] was 0.44 nM.

B3: 10D7-Qdot (conjugate)
VH: B2 VH
VL: NIVMTQSPQSMSMSVGERVTLSCKASENVGAYVSWFQQKPDQSPKLLILAASNRYTGVPARFIGSGSATDFTLTISSVQAEDLADYHCGQSYTYPYTFGGGTKLEIKRADAAPTVS
With B3 the “time until apparent on the plasma membrane” value (TKCC05 cells) was no more than 5 min and the internalization of antibody (TKCC05 cells; after 120 min) was “largely internalized”.
